Test results taken from the supplement of paper PMC9233669.
Variants at the floor of the assay were thinned out.

Key:
[1] = tested on: biotinyl-Ile-oxazolone; test: self-aminoacylation, catalytic enhancement (BIO) (fold over background); higher = more active; k-Seq, kA / k0A0; sequences stand for … in GGGAAUGGAUCCACAUCUACGAAUUC…UUCACUGCAGACUUGACGAAGCUG
Procedure, shortened: (§1)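 Working in 50 μL HEPES/NaCl/KCl/MgCl2/CaCl2 buffer with 5% acetonitrile at pH 6.9–7.0, mutagenized RNA pools (0.43 μM; 21-nt variable region) were reacted with 2–1250 μM of each biotinyl-aminoacyl-oxazolone for 90 minutes at room temperature. Streptavidin capture followed, with quantification by triplicate qPCR and Illumina sequencing. Catalytic enhancement is reported as median kA over the uncatalyzed rate, the low-activity peak of a bimodal Gaussian fit to the data.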

[2] = tested on: biotinyl-Leu-oxazolone; test: self-aminoacylation, catalytic enhancement (BLO) (fold over background); higher = more active; k-Seq, kA / k0A0; sequences stand for … in GGGAAUGGAUCCACAUCUACGAAUUC…UUCACUGCAGACUUGACGAAGCUG
Procedure, shortened: as §1

[3] = tested on: biotinyl-Trp-oxazolone; test: self-aminoacylation, catalytic enhancement (BWO) (fold over background); higher = more active; k-Seq, kA / k0A0; sequences stand for … in GGGAAUGGAUCCACAUCUACGAAUUC…UUCACUGCAGACUUGACGAAGCUG
Procedure, shortened: as §1

[4] = tested on: biotinyl-Val-oxazolone; test: self-aminoacylation, catalytic enhancement (BVO) (fold over background); higher = more active; k-Seq, kA / k0A0; sequences stand for … in GGGAAUGGAUCCACAUCUACGAAUUC…UUCACUGCAGACUUGACGAAGCUG
Procedure, shortened: as §1

[5] = tested on: biotinyl-Phe-oxazolone; test: self-aminoacylation, catalytic enhancement (BFO) (fold over background); higher = more active; k-Seq, kA / k0A0; sequences stand for … in GGGAAUGGAUCCACAUCUACGAAUUC…UUCACUGCAGACUUGACGAAGCUG
Procedure, shortened: as §1

[6] = tested on: biotinyl-Met-oxazolone; test: self-aminoacylation, catalytic enhancement (BMO) (fold over background); higher = more active; k-Seq, kA / k0A0; sequences stand for … in GGGAAUGGAUCCACAUCUACGAAUUC…UUCACUGCAGACUUGACGAAGCUG
Procedure, shortened: as §1

| Sequence | self-aminoacylation [1] | self-aminoacylation [2] | self-aminoacylation [3] | self-aminoacylation [4] | self-aminoacylation [5] | self-aminoacylation [6] |
| --- | --- | --- | --- | --- | --- | --- |
| AACUUUGCUAAUAGUCGAAAG [Fam3.1 aminoacylation ribozyme variant] | 2.25 | 2.47 | 2.01 | 1.87 | 2.63 | 2.31 |
| AUUACACUGAUCAUCGAGUGA [Fam2.1 aminoacylation ribozyme variant] | 3.19 | 6.95 | 7.71 | 3.71 | 21.1 | 6.59 |
| CUACUUCAAACAAUCGGGCGG [Fam1A.1 aminoacylation ribozyme variant] | 1.63 | 1.31 | 1.79 | 1.4 | 1.71 | 1.53 |
| GUACUUCAAACAAUCGGGCUG [Fam1A.1 aminoacylation ribozyme variant] | 3.02 | 2.67 | 14.6 | 2.8 | 21.1 | 2.47 |
| AGUGCCCUGGUCAUCGAGUGA [Fam2.1 aminoacylation ribozyme variant] | 6.36 | 14.5 | 13.6 | 5.79 | 67.6 | 12.5 |
| AAGUUUGCUAAUAGACACAAG [Fam3.1 aminoacylation ribozyme variant] | 0.828 | 0.654 | 0.797 | 0.916 | 1.23 | 0.665 |
| CUACUACAAACAAUCGGUCUU [Fam1A.1 aminoacylation ribozyme variant] | 0.533 | 0.515 | 0.511 | 0.675 | 0.658 | 0.565 |
| AUUCACCUAGUCCAUCGGGUG [Fam2.2 aminoacylation ribozyme variant] | 3.54 | 6.98 | 6.38 | 3.82 | 40.5 | 6.16 |
| AUUCACCUAGAUCAUCGGUUG [Fam2.2 aminoacylation ribozyme variant] | 0.794 | 0.786 | 0.447 | 0.983 | 0.463 | 0.778 |
| CCACUUCUAACAAUCGGUCUG [Fam1A.1 aminoacylation ribozyme variant] | 0.858 | 0.875 | 0.68 | 0.897 | 0.834 | 0.758 |
| GUUCACCUAGGUCAUCGGUUG [Fam2.2 aminoacylation ribozyme variant] | 1.17 | 1.38 | 1.41 | 1.11 | 2.93 | 1.09 |
| CCACACUUCAAGCUAUCGGGC [Fam1B.1 aminoacylation ribozyme variant] | 1.67 | 1.45 | 2.2 | 1.76 | 1.57 | 1.46 |
| AUGCACCUAGGUCAUCGCGUG [Fam2.2 aminoacylation ribozyme variant] | 5.09 | 12 | 11 | 5.84 | 56 | 8.45 |
| CCACUCCUCAAGCAAUCGGUC [Fam1B.1 aminoacylation ribozyme variant] | 1.07 | 0.845 | 1.26 | 1.23 | 1.26 | 0.986 |
| CCACACUUCUAGCAAUCGGUU [Fam1B.1 aminoacylation ribozyme variant] | 1.34 | 1.13 | 1.12 | 1.36 | 1.17 | 0.978 |
| AUUCACCUAGGUAAUCGGGUA [Fam2.2 aminoacylation ribozyme variant] | 1.39 | 1.33 | 1.8 | 1.47 | 5.56 | 1.55 |
| AAGUCUGCUAAUAGUCGAAAG [Fam3.1 aminoacylation ribozyme variant] | 1.1 | 1.52 | 6.05 | 1.04 | 16.8 | 1.84 |
| CUACUUCCAACAAUCGGGCUG [Fam1A.1 aminoacylation ribozyme variant] | 1.59 | 1.28 | 0.982 | 1.27 | 0.889 | 2.11 |
| GUUACCCUGGUCGUCGAGUGA [Fam2.1 aminoacylation ribozyme variant] | 1.5 | 1.9 | 2.24 | 1.6 | 9.01 | 2.13 |
| AAGUUUGCUCAUAGUGGCAAG [Fam3.1 aminoacylation ribozyme variant] | 0.71 | 0.526 | 0.785 | 0.774 | 1.2 | 0.618 |
| AUUCACCAAUGUCAUCGGGUG [Fam2.2 aminoacylation ribozyme variant] | 5.59 | 12.6 | 8.56 | 5.57 | 75.3 | 9.72 |
| AUUCACCUAGGUCAUUGGGUC [Fam2.2 aminoacylation ribozyme variant] | 0.922 | 0.89 | 0.734 | 0.867 | 1.09 | 0.808 |
